From the supplement of paper PMC9170038

Test system: MS2 coat protein
Test: apparent KD of MS2 coat protein; higher = weaker reporter binding
Details: Eterna round: R107
Procedure, shortened: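 Designed RNA switches were transcribed on-chip from Illumina sequencing clusters. SNAP-549-labelled MS2 coat protein was titrated onto them in twofold steps from 0.7 or 1.5 nM to 3 µM in 100 mM Tris-HCl pH 7.5, 80 mM KCl, 4 mM MgCl2, either without or with constant ligand. Apparent KD reflects the per-design median of normalised cluster binding-curve fits.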

[1] = input ligand: theophylline 20 uM
[2] = input ligand: theophylline 2 mM
[3] = input ligand: tryptophan 2.4 mM

Sequence	apparent KD of MS2 coat protein (input ligand: arginine 13.2 mM)	apparent KD of MS2 coat protein [1]	apparent KD of MS2 coat protein [2]	apparent KD of MS2 coat protein [3]	apparent KD of MS2 coat protein (input ligand: none)
AUUCAUGGAAACAUGACAUAGGGAUCUAUCCGAGGACCGGUACGGCCGCCACUCGCGUGGAGGCACAUGAGGAUCACCCAUGUUA [SS Tryp A #5]	71.2 nM	384 nM	843 nM		
UACAUGAGGAUCACCCAUGUAUGAAUGGAUACCAGAUAAAAUAAGGUCCCUUGGCAGCUAGUGAAUCGAGGGUGGGUAUCAUGAU [#13 Exclusion-TheophyllineA]	10.6 nM	12.8 nM		10.2 nM	
UCCGCGGAGACGGCCGCCACUGAGUGAGAAGUCGUGCUCUAACUACAUGAGGAUCACCCAUGUCCCAGGACCGGGUCGAAGUGUU [theeternabot_sameState_MS2_Trp_B_36]	97.4 nM	235 nM	208 nM		
AAGGUGAUCCCAGAUACCAGCUUAACAUGAGGAUCACCCAUGUAACGGACGAAAGUCCGGAGCCCUUGGCAGCUGGGUUGCCAAG [SSTheo B #14]	102 nM	305 nM	141 nM	90.9 nM	266 nM
CCGACGAUGACUAUGGGUCAGGAGUGCGCACGAGGACCGGUACGGCCGCCACUCGAGGAGUGGGACAUGAGGAUCACCCAUGUGG [X-TryptA-MS2@65]	31.5 nM	73.7 nM	52.8 nM	33.6 nM	30 nM
ACAUGAGGAUCACCCAUGUAAGUUUCAGAAGGAGCGUGAAUUAUCACAGGUAGGUCGCUGAAGUUUGCAUAUACUUAUAAAUGUA [JR_ExcArginiA_Sub006]	21 nM	26.6 nM	26.5 nM	19.8 nM	22.5 nM
UGGUUUGUGAUGGAUACCAGCAGAGAAAACGUUUAUCCUAACAUGAGGAUCACCCAUGUAUGCCCUUGGCAGCUGUUGUGGGCUG [8.T]	31.9 nM	49.5 nM		30.4 nM	
UGUAUGUGAUUUGAUACCAGACCAGCUGGUGGUAUCUGAGGAUCACCCAGGUAGGUUUGGGUCCCUUGGCAGCAAAUCGCAUACU [SS Theo B #24 Ms15]	145 nM	892 nM	335 nM	1720 nM	186 nM
UGAUCCUACAGAGAUACCAGUGCCACUAAAUAACUAAACACAUGAGGAUCACCCAUGUAACACCCUUGGCAGCUCAACUAAAGGG [Same State Theophylline B GF16]	19.7 nM	25.5 nM		26.8 nM	
AAGGGUGGGUCUCUAAUCCGUUUGACGGAUACCAGCGAGAGAUAUCGCCCUUGGCAGCCGACGACAUGAGGAUCACCCAUGUAAA [#05 Exclusion-TheophyllineA]	16.8 nM	22.5 nM	34.8 nM	15.8 nM	18.7 nM
CUGCCACGAACGGCCGCCACUUACAUGAGGAUCACCCAUGUGCCUGCGCACAAAGAAUGUCAAGAAAGGACCGGGUUCAAAUAGU [theeternabot_exclusion_MS2_Trp_B_41]	43.2 nM	177 nM	132 nM		
AGAGGUGCAACAGAUACCAGUCUACCGUACCUCAGAGAACAUGAGGAUCACCCAUGUAUAGACCCUUGGCAGCUGAUGUUAUUCA [Theo B Ex t3]	25.7 nM	36.7 nM		22.4 nM	
AUACAUGAGUGUUUGAUUAUAGAAACUGAAGGAGCGUGGUAGUACACAGGUAGGUCGCAGUAAAUACAUGAGGAUCACCCAUGUU [JR_Nu_SSArginiA_Sub026]	29.2 nM	36.5 nM	36.5 nM	38.4 nM	32.9 nM
AUACAUGAGGAUCACCCAUGUCCUCGUGAUCGAGGACCGGUACGGCCGCCACUCGGUCCUCGCGAGGAGGAGUCAAAGACUCCUA [Omei Trp A SS A v6]	97.2 nM	230 nM	240 nM		
UUAGAUAUGACAGAUACCAGCGUGUUAUAAAACAUGAGGAUCACCCAUGUAGUGAUCGAGCGCCCUUGGCAGCUGGUGUGUUUGG [7.R]	69.7 nM	175 nM		148 nM	
CUAAAUAUAACGGCCGCCACUUACUCAUGAGGUAACAACAUGAGGAUCACCCAUGUUUGAGGAUCAAGGACCGGGUUAUAUUUAG [AstrosSSTry#22]	26.5 nM	38.1 nM	30.2 nM		
UAUCGAGGUACAUGAGGAUCACCCAUGUAUCGAGGACCGGUACGGCCGCCACUCGAUAAUGGCGGAUCGUUAGUCCUCUUCGAUA [Tryp A Ex 4b]		14 nM	12.7 nM		
UGUGUCGUCUGAAGGAGCGGCCCUUGAUCCUCGUGAGACAUGAGGAUCACCCAUGUCUCGGGCCAGGUAGGUCGCAGGCGGCACA [#25 Exclusion - Arginine B]	11.5 nM	17.2 nM	12.8 nM	12.6 nM	11.9 nM
UUAAUCAUAUAAGAAAACUUAUAUGCAGAAGGAGCGUGAUAAAACACAGGUAGGUCGCUGAAGGGAACAUGAGGAUCACCCAUGU [AstrosSSArgA#7]	28 nM	36.2 nM	32.4 nM	28.8 nM	23.4 nM

Sequence	apparent KD of MS2 coat protein (input ligand: arginine 13.2 mM)	apparent KD of MS2 coat protein [1]	apparent KD of MS2 coat protein [2]	apparent KD of MS2 coat protein [3]	apparent KD of MS2 coat protein (input ligand: none)
ACAUAGAGAUUAAUCGUGGGCAUACUCGAUACCAGUAUUUUAACCUACCCUUGGCAGCGACAUGAGGAUCACCCAUGUGAGAUGA [XTheo A #9]	21.2 nM	25.1 nM		23 nM	
CGUAUUGGAAACAGUACGAGUGAUCCGGUCCGAGGACCGGUACGGCCGCCACUCGAAAUAAAUAAACAUGAGGAUCACCCAUGUA [Ex Tryptophan A 9]	14.1 nM	18.2 nM	21.9 nM		
AAUAGUCCUCGACAUGGGUAUCACCCAUGUCGAGGACCGGUACGGCCGCCACUCGACAUGAGGAUCACCCAUGUUGAGUGAUAAA [prototype 1.1]	12.2 nM	13.7 nM	9.31 nM	9.09 nM	9.57 nM
UGUCGGCCGCCAGGAAAUGGUGGCCGACAUCGAGGACCGGUACGGCCGCCACUCGGUCGUACAUGAGGAUCACCCAUGUCGGUGA [SameState-Tryptophan_A Attempt #10 (HarryS)]	72.9 nM	508 nM	942 nM	1200 nM	496 nM
GUAGCGACGACGGCCGCCACUCACACGAGAGGGUAGACCAACCUUCACAUGAGGAUCACCCAUGUGAGGACCGGGUUGUCGGUAC [Exclusion - Tryptophan B]	20 nM	26.6 nM	33 nM		
CCGUUUUAUGGCGACAUAGGGCGGACUGAAGGAGCGGGAUAAAACCCAGGUAGGUCGCAGAGAUCCACAUGAGGAUCACCCAUGU [!0.X]	35.9 nM	54.5 nM	32.8 nM	35.9 nM	38 nM
CACAUUUUUAGAAGGGCGGUUUCACUCCUGCGAGGACCGGUACGGCCGCCACUCGACAUGAGGAUCACCCAUGUGGAGAAGUUAG [Laesedti]	18.4 nM	27.9 nM	30.5 nM		
ACAUGAGGAUCACCCAUGUAUUACCGGGAAGGAGCGCGUAAGGACGCAGGUAGGUCGCUCGGCGUCGUGCUGGAAAGCACGACGA [#1 Same State - Arginine A Attempt #23 (HarryS)]	12.9 nM	20.7 nM	17.9 nM	15.1 nM	14.1 nM
ACAUUUAACUGAAGGAGCGUGAUUUCUACAACAUGAGGAUCACCCAUGUUCAUUACUCAUUCACAGGUAGGUCGCAGACUAAUGA [JR_SSArginiB_Sub031]	20.9 nM	26.8 nM	23.5 nM	21 nM	20.2 nM
AUUCUUUACUGAAGGAGCGUCAUUCUUACAUGAGGAUCACCCAUGUUUAUUCUUUAUUAUUGACAGGUAGGUCGCAGAUUUUUUA [JR_SSArginiB_Sub018]	15.5 nM	17.7 nM	14.3 nM	14.3 nM	13.8 nM
UUUGAUAGGACAGAUACCAGCGUGUUGUUGAACAUGAGGAUCACCCAUGUAGUGAUCAGGCGCCCUUGGCAGCUGGUUUGUUAGG [7.N]	265 nM	363 nM		366 nM	
AGACAUGAGGAUCACCCAUGUAGCAUGGAUACCAGAUCCAGAUUUAUCCCUUGGCAGCUGUGGUAAAGUGAUGGAUUGCUCCUAG [Exclusion - Theophylline A (Freestyle 7)]	38.1 nM	55.8 nM		36.9 nM	
UACAAACAUGAGGAUCACCCAUGUAGUGAUACCAGCAUAACAGAUUGCCCUUGGCAGCACCGGUUUGUACUCAAACGAAGUACGG [theeternabot_sameState_MS2_Theo_A_36]	56 nM	86.2 nM		52.9 nM	
ACGACAUGAGGAUCACCCAUGUGUACUGAAGGAGCGGCGGAAACGCCAGGUAGGUCGCAGUACACCUCAACCAGCGGUCCUAAGU [EAA NP+V+V2 #2]	27 nM	78.4 nM	107 nM	64.3 nM	64.1 nM
GGUCUCUGGAGCGAUACCAGCUUGAUCGUACUGGCCUGGUACAUGAGGAUCACCCAUGUAAGCCCUUGGCAGCGCUCCAGAGACC [#1 Exclusion - Theophylline B Attempt #8 (HarryS)]	11.8 nM	16.3 nM		11.2 nM	
GCGAUACGUACUGAUACCAGAGACAUGAGGAUCACCCAUGUCCCAUGAUCAUACCUCAGACUCCCUUGGCAGCAGGAUAAGUGAG [Exclusion Theophylline B GF2]	11.3 nM	15.1 nM		12 nM	
UGCCUAGACGUGGAUUACCCGUGUACCGAAGGAGCGCCCGAAAGGGCAGGUAGGUCGCGGAGGACAUGAGGAUCACCCAUGUUUA	31.9 nM	151 nM	431 nM	175 nM	201 nM
UAUAUAUAAAUUGAUACCAGCGAGAAAACAUGAGGAUCACCCAUGUUCGCCCAUGUUAAGCGCCCUUGGCAGCAAUAUUAUUAUU [AstrosExyTheB#3]	18.8 nM	33.4 nM		33.8 nM	
GAGCUGAUGUAGGGCGGAUAUCCGUGAGAUACCAGUACAGAAAUGUACCCUUGGCAGCUCUUCCUUACAUGAGGAUCACCCAUGU [Ex Theophylline A 26]	23.1 nM	25.5 nM		19.4 nM	
